1 protein from PMC4823748, “Production of FAME biodiesel in E. coli by direct methylation with an insect enzyme” (Scientific Reports, 2016) can be followed below.

Substrate in this data set: CCCCCCCCCCCC(=O)O
Kind of data set: MTAN/LuxS-coupled DTNB colorimetric methyltransferase assay. The class given is biochemical, Drosophila melanogaster. As to conditions: 500 μM SAM, 50 mM potassium phosphate pH 8.0, 30 °C, 3 μM enzyme, 5–200 μM lauric acid.

B1: DmJHAMT (Drosophila melanogaster) (protein)
chain: MNQASLYQHANQVQRHDAKLILDEFASTMQWRSDGEDALLDVGSGSGNVLMDFVKPLLPIRGQLVGTDISSQMVHYASKHYQREERTRFQVLDIGCERLPEELSGRFDHVTSFYCLHWVQNLKGALGNIYNLLKPEGGDCLLAFLASNPVYEVYKILKTNDKWSTFMQDVENFISPLHYSLSPGEEFSQLLNDVGFVQHNVEIRNEVFVYEGVRTLKDNVKAICPFLERMPADLHEQFLDDFIDIVISMNLQQGENNEDQKFLSPYKLVVAYARKTPEFVNNVFLEPTHQNLVKGIN
notes: primers encode N-terminus MNQASLYQH and C-terminus QNLVKGIN-stop
As usually defined, the Km is the substrate concentration at which the rate is half of its maximum. The term kcat denotes the maximal rate divided by the concentration of active sites. In the case of B1, the Km stood at 59 µM and the kcat came out at 0.0025 s⁻¹.
